Assays:
[1] = target: G-CSF-R (Homo sapiens (Human)) (UniProt Q99062); assay: potency ELISA, plate coated with G-CSFR, HRP detection, parallel line analysis; 120 mg/mL formulation, 0 months at 5 C
[2] = target: G-CSF-R (Homo sapiens (Human)) (UniProt Q99062); assay: potency ELISA, plate coated with G-CSFR, HRP detection, parallel line analysis; 120 mg/mL formulation, 3 months at 5 C
[3] = target: G-CSF-R (Homo sapiens (Human)) (UniProt Q99062); assay: potency ELISA, plate coated with G-CSFR, HRP detection, parallel line analysis; 120 mg/mL formulation, 6 months at 5 C
[4] = target: G-CSF-R (Homo sapiens (Human)) (UniProt Q99062); assay: potency ELISA, plate coated with G-CSFR, HRP detection, parallel line analysis; 120 mg/mL formulation, 9 months at 5 C
[5] = target: G-CSF-R (Homo sapiens (Human)) (UniProt Q99062); assay: potency ELISA, plate coated with G-CSFR, HRP detection, parallel line analysis; 120 mg/mL formulation, 12 months at 5 C
[6] = target: G-CSF-R (Homo sapiens (Human)) (UniProt Q99062); assay: potency ELISA, plate coated with G-CSFR, HRP detection, parallel line analysis; 120 mg/mL formulation, 18 months at 5 C
[7] = target: G-CSF-R (Homo sapiens (Human)) (UniProt Q99062); assay: potency ELISA, plate coated with G-CSFR, HRP detection, parallel line analysis; 120 mg/mL formulation, 24 months at 5 C
[8] = target: G-CSF-R (Homo sapiens (Human)) (UniProt Q99062); assay: potency ELISA, plate coated with G-CSFR, HRP detection, parallel line analysis; 120 mg/mL formulation, 0 months at 25 C
[9] = target: G-CSF-R (Homo sapiens (Human)) (UniProt Q99062); assay: potency ELISA, plate coated with G-CSFR, HRP detection, parallel line analysis; 120 mg/mL formulation, 3 months at 25 C
[10] = target: G-CSF-R (Homo sapiens (Human)) (UniProt Q99062); assay: potency ELISA, plate coated with G-CSFR, HRP detection, parallel line analysis; 120 mg/mL formulation, 6 months at 25 C
[11] = target: G-CSF-R (Homo sapiens (Human)) (UniProt Q99062); assay: potency ELISA, plate coated with G-CSFR, HRP detection, parallel line analysis; 120 mg/mL formulation, 9 months at 25 C
[12] = target: G-CSF-R (Homo sapiens (Human)) (UniProt Q99062); assay: potency ELISA, plate coated with G-CSFR, HRP detection, parallel line analysis; 120 mg/mL formulation, 12 months at 25 C
[13] = target: G-CSF-R (Homo sapiens (Human)) (UniProt Q99062); assay: potency ELISA, plate coated with G-CSFR, HRP detection, parallel line analysis; 120 mg/mL formulation, 18 months at 25 C

potency relative to reference standard [1]: 108%
potency relative to reference standard [2]: 116%
potency relative to reference standard [3]: 108%
potency relative to reference standard [4]: 108%
potency relative to reference standard [5]: 107%
potency relative to reference standard [6]: 100%
potency relative to reference standard [7]: 103%
potency relative to reference standard [8]: 108%
potency relative to reference standard [9]: 109%
potency relative to reference standard [10]: 109%
potency relative to reference standard [11]: 99%
potency relative to reference standard [12]: 96%
potency relative to reference standard [13]: 96%
Substance: CSL324 (antibody)

From patent US20240002517A1
